Experiment [1] has as its target T1, biotinylated human Sortilin monomer (human, UniProt Q99523 78-755, limits assumed, biotinylated (Sulfo-NHS-biotin)).
T1 construct: monomer cut from the Fc fusion with IdeS; used unbiotinylated in solution in some formats; also called Bt-hSort; b-H Sort
In words: ForteBio, avidity, biotinylated human Sortilin on sensor. On the technique in general: In BLI a coated tip is dipped into the sample, and binding shifts an interference pattern.

Experiment [2] has as its target T2, human Sortilin expressed on 293 / HEK293T cells (human, UniProt Q99523 78-830).
T2 construct: full-length recombinant human Sortilin; also called hSort; SORT1
In words: FACS, 293 cells.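 Note: antibodies at 10 µg/ml bound to cells for 1 h on ice, detected with PE-labelled anti-human secondary antibody by flow cytometry, reported as mean fluorescence intensity.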 In general terms: In flow cytometry, cells or beads pass a laser one at a time.
Experimental: (§1) Cells were harvested, plated at 10⁵/ml in a 96 well plate, washed, and incubated in 100 μl PBS containing 10 μg/ml Mab and 2% FBS for 1 hour in ice. Cells were then washed twice and incubated in 100 μl PBS+2% FBS containing 5 μg/ml PE-conjugated anti-human secondary antibody for 30 minutes in ice. Cells were washed twice in cold PBS and data was acquired on a BD FACS Canto. Data analysis and calculation of MFI values was performed with FlowJo (TreeStar) software version 10.0.7.

In experiment [3] the target is T3, mouse Sortilin expressed on 293 / HEK293T cells (mouse, UniProt Q6PHU5 74-825).
T3 construct: full-length recombinant mouse Sortilin; also called mSort; msSort
Put plainly: FACS, 293 cells.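 Note: antibodies at 10 µg/ml bound to cells for 1 h on ice, detected with PE-labelled anti-human secondary antibody by flow cytometry, reported as mean fluorescence intensity.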
Experimental: as §1

The target in experiment [4] is T4, mouse Sortilin Fc fusion protein (mouse; human, UniProt Q6PHU5 74-754).
T4 construct: whole entry named; also called mSort-Fc
In words: ForteBio, avid.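 Note: whole IgG captured on AHQ sensors, then contacted with Sortilin Fc fusion antigen at 100 nM, followed by an off-rate phase in buffer.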
Experimental: (§2) The affinity for the Sortilin antibodies was determined by measuring their KD by ForteBio. […] Briefly, ForteBio affinity measurements were performed by loading IgGs on-line onto AHQ sensors. Sensors were equilibrated off-line in assay buffer for 30 min and then monitored on-line for 60 seconds for baseline establishment. For avid binding measurement, sensors with loaded IgGs were exposed to 100 nM antigen (human or mouse Sortilin Fc fusion) for 3, afterwards they were transferred to assay buffer for 3 min for off-rate measurement.
(§3) The binding affinity of each anti-Sortilin antibody was determined by measuring their KD by ForteBio or MSD-SET at room temperature. […] Briefly, ForteBio affinity measurements were performed by loading IgGs on-line onto AHQ sensors. Sensors were equilibrated off-line in assay buffer for 30 min and then monitored on-line for 60 seconds for baseline establishment. Sensors with loaded IgGs were exposed to 100 nM antigen for 5 minutes, then transferred to assay buffer for 5 min for off-rate measurement. Kinetics were analyzed using the 1:1 binding model.

For experiment [5], the target named is T5, human Sortilin Fc fusion protein (human, UniProt Q99523 78-755).
T5 construct: whole entry named; also called hSort-Fc
In words: ForteBio, avid.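 Note: whole IgG captured on AHQ sensors, then contacted with Sortilin Fc fusion antigen at 100 nM, followed by an off-rate phase in buffer.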
Experimental: as §2, §3

In experiment [6] the target is T1, biotinylated human Sortilin monomer. In words: ForteBio, Fab.
Experimental: The affinity of the anti-Sortilin antibodies was determined by measuring their KD by ForteBio and MSD. […] Briefly, ForteBio affinity measurements were performed by loading immunoglobulins (IgGs) on-line onto AHQ sensors. Sensors were equilibrated off-line in assay buffer for 30 min and then monitored on-line for 60 seconds for baseline establishment. For avid binding measurement, sensors with loaded IgGs were exposed to 100 nM antigen (human or mouse Sortilin Fc fusion) for 3 min, afterwards they were transferred to assay buffer for 3 min for off-rate measurement. […] Monovalent binding measurements were obtained by loading human or mouse Sortilin Fc fusion antigens to AHQ sensor and followed by exposure to −100 nM Sortilin antibody Fab. […] Kinetics data were fit using a 1:1 binding model in the data analysis software provided by ForteBio.
Experiment [7] deals with T6, biotinylated mouse Sortilin monomer (mouse, UniProt Q6PHU5 74-754, limits assumed, biotinylated).
T6 construct: also called Bt-msSort
Put plainly: MSD-SET, Fab.
Experimental: (§4) Antibodies (20 nM in PBS) were coated onto standard bind MSD-ECL plates overnight at 4° C. or at room temperature for 30 min. Plates were then blocked with 1% BSA for 30 min with shaking at 700 rpm, followed by three washes with wash buffer (PB SF+0.05% Tween 20). SET samples were applied and incubated on the plates for 150 s with shaking at 700 rpm followed by one wash. Antigen captured on a plate was detected with 250 ng/ml sulfotag-labeled streptavidin in PBSF by incubation on the plate for 3 min. The plates were washed three times with wash buffer and then read on the MSD Sector Imager 2400 instrument using 1× Read Buffer T with surfactant. The percent free antigen was plotted as a function of titrated antibody in Prism and fit to a quadratic equation to extract the KD. To improve throughput, liquid handling robots were used throughout MSD-SET experiments, including SET sample preparation.

Experiment [8] has as its target T1, biotinylated human Sortilin monomer. In words: MSD-SET, Fab; MSD, Fab, monovalent biotinylated human Sortilin.
Experimental: as §4
Experiment [9] has as its target T7, recombinant mouse Sortilin (R&D Systems) (mouse, UniProt Q6PHU5 74-754, limits assumed).
T7 construct: bought; also called mouse SORT1
Put plainly: ELISA, biotinylated PGRN on immobilized Sortilin. In general terms: ELISA stands for enzyme-linked immunosorbent assay.

Numbering of substitutions follows the chain as printed.

In patent US20220185898A1 (Alector, published 2022) one finds Kd and MFI data, which are given here for three molecules.

B1: S-14 (antibody, V domains shown)
VH: QVQLVQSGAEVKKPGASVKVSCKASGYTFTSYYMSWVRQAPGQGLEWMGIINPSGGSTSYAQKFQGRVTMTRDTSTSTVYMELSSLRSEDTAVYYCARDPSGIAAAGPASRYYYGMDVWGQGTTVTVSS
VL: DIQMTQSPSSLSASVGDRVTITCRASQSISSYLNWYQQKPGKAPKLLIYGASSLQSGVPSRFSGSGSGTDFTLTISSLQPEDFATYYCQQHYVGPFTFGGGTKVEIK
notes: IgG
For B1, the values for the Kd in experiment [1], in [4] and in experiment [5] were 0.8 nM, 2.74 nM and 5.74 nM, respectively. The MFI in [2] was determined as 8010; in experiment [3] it was 16500.

B2: S-2-1 Fab (Fab, V domains shown)
VH: QVQLVQSGAEVKKPGASVKVSCKASGYTFGAYYMHWVRQAPGQGLEWMGWINPNSGFTRYAQKFQGRVTMTRDTSISTAYMELSRLRSDDTAVYYCARGKRSSGWYEGYGMDVWGQGTTVTVSS
VL: B1 VL with G50A, H91S, Y92D, G94S, F96I
notes: Fab by papain digestion of the IgG
B2: the Kd in experiment [6] is 0.614 nM; in [7], 0.73 nM; in [8], 0.029 nM.

B3: recombinant mouse Progranulin (Adipogen) (ligand, UniProt P28798 18-589, looked up)
chain: TQCPDGQFCPVACCLDQGGANYSCCNPLLDTWPRITSHHLDGSCQTHGHCPAGYSCLLTVSGTSSCCPFSKGVSCGDGYHCCPQGFHCSADGKSCFQMSDNPLGAVQCPGSQFECPDSATCCIMVDGSWGCCPMPQASCCEDRVHCCPHGASCDLVHTRCVSPTGTHTLLKKFPAQKTNRAVSLPFSVVCPDAKTQCPDDSTCCELPTGKYGCCPMPNAICCSDHLHCCPQDTVCDLIQSKCLSKNYTTDLLTKLPGYPVKEVKCDMEVSCPEGYTCCRLNTGAWGCCPFAKAVCCEDHIHCCPAGFQCHTEKGTCEMGILQVPWMKKVIAPLRLPDPQILKSDTPCDDFTRCPTNNTCCKLNSGDWGCCPIPEAVCCSDNQHCCPQGFTCLAQGYCQKGDTMVAGLEKIPARQTTPLQIGDIGCDQHTSCPVGQTCCPSLKGSWACCQLPHAVCCEDRQHCCPAGYTCNVKARTCEKDVDFIQPPVLLTLGPKVGNVECGEGHFCHDNQTCCKDSAGVWACCPYLKGVCCRDGRHCCPGGFHCSARGTKCLRKKIPRWDMFLRDPVPRPLL
modifications: biotinylated
notes: also called mPGRN; Bio-mPGRN
Regarding B3, in experiment [9], the Kd came out at 40 nM.
